Measurements from publication PMC12376597, “High‐Throughput MicroED for Probing Ion Channel Dynamics” (Advanced Science, 2025).

B1: NaK, non-selective ion channel, lacking the first 19 residues (natural protein, UniProt Q81HW2 20-114, looked up)
chain: KDKEFQVLFVLTILTLISGTIFYSTVEGLRPIDALYFSVVTLTTVGDGNFSPQTDFGKIFTILYIFIGIGLVFGFIHKLAVNVQLPSILSNRKKE
notes: NaK non-selective cation channel, construct lacking the first 19 residues; model for molecular replacement was PDB 3E89; Tetrameric channel; in space group I4 the tetramer is generated from one monomer by crystal symmetry, and the two monomers of the asymmetric unit give two tetramers; also called NaK channel

Assays:
[1] = biological target: NaK2CNG, mutant of NaK with the selectivity filter substituted to TVGDTPP, lacking the first 19 residues (UniProt Q81HW2); test: crystal structure; MicroED (electron diffraction) of single microcrystals grown in Tris pH 8.0 and 60-80% MPD; protein in 0.2% DM with 150 mM NaCl (NaK) or 150 mM KCl (NaK2CNG); space group I4, two monomers in the asymmetric unit, tetramers generated by crystal symmetry
[2] = biological target: the molecule itself; test: as above

Molecule	stoichiometry N [1]	stoichiometry N [2]
NaK2CNG, mutant of NaK with the selectivity filter substituted to TVGDTPP, lacking the first 19 residues (from UniProt Q81HW2 20-114) (natural protein)	4	
B1		4
